Substrate in this series: C[S+](CC[C@H](N)C(=O)O)C[C@H]1O[C@@H](n2cnc3c(N)ncnc32)[C@H](O)[C@@H]1O
Briefly: purified protein. The series is classed as biochemical, Amycolatopsis sp. CA-128772. As to conditions: KF 100 mM (methods text says 200 mM), Tris-HCl 50 mM pH 7.8, 50 °C, 10 min.

As a reminder, the Km is the substrate concentration at which the rate is half of its maximum. In general, kcat refers to the number of substrate molecules converted per active site and unit of time at saturation. What is called kcat/Km is the turnover number divided by the Michaelis constant.

B1: Fam (Amycolatopsis sp. CA-128772) (protein)
chain: MAKPSRPIIAFMSDLGITDDSVAQCKGLMLSVCPDVTIVDVCHTMKPWDVEEGARYIVDLPRLFPEGTVFATTTYPATGTTTRSVALRIKQAAKGGARGQWAGSGAGFERAEGSYIYIAPNNGLLTSVIEEHGYVEAYEVSSTEVIPEQPEPTFYSREMVALPSAHLAAGFPLEKVGRPLADDEIVRFERAKPAQNDDGELVGVVTAIDHPFGNVWTNIHREDLEKLGAGYGTRLRITLDEVLPFDLPLSPTFADAGPIGTPVAYLSSRGYLALARNAASLAYPYNLNAGISVRVVAA
For the protein B1, the Km came out at 77.17 ± 14.10 µM, the kcat was 0.00285 s⁻¹ and the kcat/Km was found to be 37 M⁻¹ s⁻¹.

Source of the values: PMC9234330, “Identification of Two Novel Fluorinases From Amycolatopsis sp. CA-128772 and Methanosaeta sp. PtaU1.Bin055 and a Mutant With Improved Catalytic Efficiency With Native Substrate” (Frontiers in Bioengineering and Biotechnology, 2022).
